{
  "source": "patent US20250295734A1",
  "about": "“ANTICOAGULANT PROTEINS AND THEIR USE FOR TREATING DISEASES ASSOCIATED WITH THE ACTIVATION OF NEUTROPHILS” (BIOXODES, priority 2018, published 2025)",
  "molecules": {"B1": {"name": "Ir-CPI: Ixodes ricinus salivary gland polypeptide, contact phase inhibitor, MW=7660 Da; sequence SEQ ID NO: 1 or SEQ ID NO: 2 (protein)", "chain": "ANHKGRGRPAKCKLPPDDGPCRARIPSYYFDRKTKTCKEFMYGGCEGNENNFENITTCQEECRAKKV"}},
  "key": {"[1]": {"test_system": "neutrophils isolated from bone marrow of femurs of mice", "test": "Neutrophil activation following incubation with ATP (flow cytometry)", "type": "cell-based, mice (C57BL/6)", "protocol": "Neutrophils were isolated from the bone marrow of femurs of mice (C57BL/6) as previously described (Hu 2012), using FR-1-coupled magnetic beads (anti-Ly6G Microbead Kit, Miltenyi Biotec). For activation with TFNα, cells were harvested, centrifugated and incubated during 30 min with or without 2 ng/ml of TNFα in Hanks solution (Gibco). Next, neutrophils were incubated with Ir-CPI (0.65 or 2 μM) in Hanks solution (1 h at 37° C.). For activation with ATP, cells were harvested, centrifugated and incubated with ATP 10 μM and Ir-CPI (0.65 or 2 μM) in Hanks solution (1 h at 37° C.). After washing of cells, expression of CD11b, activated CD11b or Ly6G was assessed by flow cytometry (Beckman Coulter Gallios). Antibodies used for neutrophil identification and activation analyses were IRR IgG1-FITC (irrelevant antibody), anti-CD45-APC, anti-Ly6G-PE and anti-CD11b-FITC or Alexa Fluor 647 anti-activated CD11b-. Analysis of results was performed using the Kaluza software (Beckman Coulter).\nPercentage of activation marker expression was presented as mean±SEM (n=3independent experiments for TNFα activation and n=2 independent experiments for ATP activation). For experiments with TNFα activation, a one-way ANOVA followed by a\nNeutrophils isolated from bone marrow of femurs of mice were submitted to different in vitro experimental conditions (untreated control or incubation with Ir-CPI, and with or without ATP) to assess the effect of Ir-CPI on their activation status. The activation status was assessed by analyzing the percentage of CD11b, activated CD11b and Ly6G expressions at the surface of neutrophils (FIG. 17)."}, "Factor XIa": {"target": "Factor XIa (Homo sapiens, UniProt P03951)", "sequence (P03951 19-387 limits assumed)": "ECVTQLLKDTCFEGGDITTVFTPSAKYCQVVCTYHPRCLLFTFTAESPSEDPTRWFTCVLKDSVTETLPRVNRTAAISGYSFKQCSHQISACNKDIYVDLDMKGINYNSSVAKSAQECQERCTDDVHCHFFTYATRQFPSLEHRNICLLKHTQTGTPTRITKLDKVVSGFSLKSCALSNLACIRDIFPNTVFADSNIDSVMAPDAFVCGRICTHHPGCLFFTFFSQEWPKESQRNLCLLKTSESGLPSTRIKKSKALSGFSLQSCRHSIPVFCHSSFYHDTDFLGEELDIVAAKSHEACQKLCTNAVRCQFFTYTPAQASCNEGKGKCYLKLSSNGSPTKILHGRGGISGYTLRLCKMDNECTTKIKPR", "sequence (P03951 388-625 limits assumed)": "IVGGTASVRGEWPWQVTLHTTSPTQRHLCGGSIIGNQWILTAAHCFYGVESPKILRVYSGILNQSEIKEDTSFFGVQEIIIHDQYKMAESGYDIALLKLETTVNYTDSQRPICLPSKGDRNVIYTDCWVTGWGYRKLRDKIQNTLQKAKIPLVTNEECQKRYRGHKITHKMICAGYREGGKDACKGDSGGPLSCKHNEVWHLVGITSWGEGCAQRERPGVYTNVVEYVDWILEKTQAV", "details": "cited from earlier work"}, "kallikrein": {"target": "kallikrein (Homo sapiens, UniProt P03952)", "sequence (P03952 20-390 limits assumed)": "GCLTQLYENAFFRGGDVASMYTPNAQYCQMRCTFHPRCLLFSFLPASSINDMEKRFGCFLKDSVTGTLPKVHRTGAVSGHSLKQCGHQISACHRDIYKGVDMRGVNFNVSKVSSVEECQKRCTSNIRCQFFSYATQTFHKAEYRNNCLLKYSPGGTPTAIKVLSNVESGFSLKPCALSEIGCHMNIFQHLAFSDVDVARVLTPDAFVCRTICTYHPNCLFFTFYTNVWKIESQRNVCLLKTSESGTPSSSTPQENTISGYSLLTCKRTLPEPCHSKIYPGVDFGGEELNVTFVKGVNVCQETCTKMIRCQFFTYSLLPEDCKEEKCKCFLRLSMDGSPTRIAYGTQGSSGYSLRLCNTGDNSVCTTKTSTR", "sequence (P03952 391-638 limits assumed)": "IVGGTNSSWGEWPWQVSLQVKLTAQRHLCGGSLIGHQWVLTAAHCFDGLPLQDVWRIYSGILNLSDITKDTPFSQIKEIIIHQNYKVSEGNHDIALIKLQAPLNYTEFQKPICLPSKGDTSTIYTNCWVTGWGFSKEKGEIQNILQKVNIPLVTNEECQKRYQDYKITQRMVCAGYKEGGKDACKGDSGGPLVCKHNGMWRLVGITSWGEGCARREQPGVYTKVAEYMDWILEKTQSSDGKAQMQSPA", "details": "cited from earlier work"}, "human neutrophils": {"test_system": "human neutrophils", "test": "Phagocytosis assay with pHrodo E. coli bioparticles", "type": "cell-based", "details": "for neutrophil phagocytic activity: 3 donors", "protocol": "The effect of Ir-CPI on the phagocytic activity of human neutrophils was assessed. For this purpose, freshly isolated neutrophils from 3 donors were pre-treated for 1 h with recombinant Ir-CPI at 2 different concentrations (5.0 or 15.3 μg/mL) and then incubated in the presence of pH-rodo® E. coli bioparticles (Sartorius). To evaluate the phagocytic activity, fluorescence was monitored every 15 min for up to 48 hours.\nNeutrophils were directly isolated from whole blood by using the EasySep™ Direct Human Neutrophil Isolation Kit (StemCell) and according to the manufacturer's protocol. The purification is a negative selection (elimination of unwanted cell populations) to obtain intact neutrophils.\npHrodo® Green E. coli Bioparticles were resuspended at 1 mg/mL in PBS, vortexed and sonicated according to the manufacturer's protocol and then stored at 4° C. overnight. Then, 25.000 freshly isolated neutrophils, resuspended in RPMI 1640 medium containing 10% of FBS and supplements (2 mM Glutamine, 1% NEAA, 1 mM Sodium pyruvate, 50 μM B-mercaptoethanol and 50 μg/ml Gentamycin), were seeded per well in a 96 well-plate and preincubated for 1 h at 37° C., 5% CO2 with Ir-CPI at two different concentrations (2 μM and 0.65 μM). Then, pHrodo® Green E. coli Bioparticles were added at 10 μg/well and the plate was incubated in the Incucyte® Live-Cell Analysis System. Pictures were taken every 15 minutes for 48 hours. Two negative controls were performed: (1) only the neutrophils were seeded in absence of Ir-CPI and without particles, and (2) neutrophils were seeded in absence of Ir-CPI and incubated with the particles. All conditions were performed in triplicates.\nTo analyse neutrophil phagocytosis, the Green total area (μm2/image) was measured in each well every 15 minutes for 48 hours (2 pictures/well). Briefly, the IncuCyte® Basic Analysis software allows for the quantification of fluorescent object metrics in real-time. […]"}, "thrombin": {"target": "thrombin (Homo sapiens, UniProt P00734)", "details": "cited from earlier work"}, "[2]": {"details": "rodents; pharmacological therapeutic active dose; cited from earlier work"}, "[3]": {"test_system": "venous thrombus formation", "details": "dose-dependent; cited from earlier work"}, "plasmin": {"target": "plasmin (Homo sapiens, UniProt P00747)", "sequence (P00747 97-580 limits assumed, species assumed)": "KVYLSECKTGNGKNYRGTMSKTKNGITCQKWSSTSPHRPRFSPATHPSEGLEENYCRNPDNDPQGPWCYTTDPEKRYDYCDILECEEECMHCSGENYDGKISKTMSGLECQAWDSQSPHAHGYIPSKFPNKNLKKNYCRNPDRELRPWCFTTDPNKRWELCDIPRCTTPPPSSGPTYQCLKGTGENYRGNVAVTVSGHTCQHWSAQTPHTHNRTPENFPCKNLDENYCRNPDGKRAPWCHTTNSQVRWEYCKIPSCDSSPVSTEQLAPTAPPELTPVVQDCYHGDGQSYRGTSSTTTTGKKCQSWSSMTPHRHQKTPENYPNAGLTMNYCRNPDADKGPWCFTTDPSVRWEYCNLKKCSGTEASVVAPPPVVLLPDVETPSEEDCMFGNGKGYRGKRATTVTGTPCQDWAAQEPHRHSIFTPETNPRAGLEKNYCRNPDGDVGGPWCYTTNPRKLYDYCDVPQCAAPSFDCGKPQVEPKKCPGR", "sequence (P00747 581-810 limits assumed, species assumed)": "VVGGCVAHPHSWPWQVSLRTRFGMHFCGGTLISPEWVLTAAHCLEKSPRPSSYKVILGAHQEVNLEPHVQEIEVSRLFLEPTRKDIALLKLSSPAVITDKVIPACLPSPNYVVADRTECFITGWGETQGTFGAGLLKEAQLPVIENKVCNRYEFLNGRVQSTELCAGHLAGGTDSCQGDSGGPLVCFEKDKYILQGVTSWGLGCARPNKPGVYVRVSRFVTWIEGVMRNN", "details": "cited from earlier work"}, "Factor XIIa": {"target": "T1, Factor XIIa (Homo sapiens, UniProt P00748)", "T1 construct": "The resulting α-FXIIa has a heavy chain of 50 kDa, connected to a light chain of 28 kDa", "T1 sequence (P00748 20-372 limits assumed)": "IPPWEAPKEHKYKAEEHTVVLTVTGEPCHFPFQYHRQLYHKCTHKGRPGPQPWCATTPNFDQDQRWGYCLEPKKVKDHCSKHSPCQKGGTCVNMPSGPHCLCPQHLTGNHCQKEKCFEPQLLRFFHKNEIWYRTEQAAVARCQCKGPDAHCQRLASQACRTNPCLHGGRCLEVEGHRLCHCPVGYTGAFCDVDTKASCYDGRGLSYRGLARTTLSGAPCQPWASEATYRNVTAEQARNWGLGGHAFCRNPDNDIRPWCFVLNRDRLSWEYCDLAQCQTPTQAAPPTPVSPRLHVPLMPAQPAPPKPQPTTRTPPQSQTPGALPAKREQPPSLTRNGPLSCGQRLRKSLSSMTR", "T1 sequence (P00748 373-615 limits assumed)": "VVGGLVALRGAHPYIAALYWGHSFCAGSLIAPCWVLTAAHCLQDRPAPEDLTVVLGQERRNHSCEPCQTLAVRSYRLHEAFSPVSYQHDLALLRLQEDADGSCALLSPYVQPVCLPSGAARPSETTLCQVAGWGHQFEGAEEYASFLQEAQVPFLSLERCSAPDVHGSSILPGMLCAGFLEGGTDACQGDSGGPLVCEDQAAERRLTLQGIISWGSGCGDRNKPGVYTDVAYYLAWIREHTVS", "details": "cited from earlier work"}, "clot fibrinolysis": {"test_system": "clot fibrinolysis", "details": "dose-dependent; in a lesser extend than aPTT; cited from earlier work"}, "plasminogen": {"target": "plasminogen (Homo sapiens, UniProt P00747)", "sequence (P00747 20-810 limits assumed, species assumed)": "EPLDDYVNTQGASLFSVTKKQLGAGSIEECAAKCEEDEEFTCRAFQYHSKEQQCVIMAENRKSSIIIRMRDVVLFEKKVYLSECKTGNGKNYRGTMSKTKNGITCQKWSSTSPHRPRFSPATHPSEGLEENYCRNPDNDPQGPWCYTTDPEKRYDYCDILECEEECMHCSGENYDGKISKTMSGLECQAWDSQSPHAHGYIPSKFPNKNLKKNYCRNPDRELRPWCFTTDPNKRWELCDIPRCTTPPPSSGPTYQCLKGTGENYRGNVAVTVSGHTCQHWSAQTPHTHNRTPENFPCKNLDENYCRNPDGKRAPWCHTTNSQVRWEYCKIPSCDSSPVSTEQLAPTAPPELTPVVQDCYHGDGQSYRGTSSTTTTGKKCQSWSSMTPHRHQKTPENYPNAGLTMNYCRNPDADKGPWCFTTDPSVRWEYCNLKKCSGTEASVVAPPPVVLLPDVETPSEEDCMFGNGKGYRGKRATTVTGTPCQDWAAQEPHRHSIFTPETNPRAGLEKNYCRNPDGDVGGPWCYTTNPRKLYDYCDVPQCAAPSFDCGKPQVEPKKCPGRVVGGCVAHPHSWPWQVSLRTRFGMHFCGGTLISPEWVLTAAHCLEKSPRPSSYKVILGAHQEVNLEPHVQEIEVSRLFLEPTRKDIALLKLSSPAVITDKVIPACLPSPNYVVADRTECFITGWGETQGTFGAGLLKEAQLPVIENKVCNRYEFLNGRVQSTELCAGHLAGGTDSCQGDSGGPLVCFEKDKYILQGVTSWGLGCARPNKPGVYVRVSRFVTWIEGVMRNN", "details": "cited from earlier work"}},
  "data": [
    {"molecule": "B1", "values": [
      {"measurement": "expression of Ly6G at the surface of neutrophils", "setting": "[1]; ATP 10 μM, Ir-CPI 0.65 or 2 μM (FIG. 17A)", "value": "decreased"},
      {"measurement": "expression of activated CD11b at the surface of neutrophils", "setting": "[1]; ATP 10 μM, Ir-CPI 0.65 or 2 μM (FIG. 17C)", "value": "significantly decreased"},
      {"measurement": "expression of CD11b", "setting": "[1]; ATP experiment (FIG. 17B), Ir-CPI 0.65 and 2 μM", "value": "no effect"},
      {"measurement": "activation of Factor XII by Factor XIa", "setting": "Factor XIa", "value": "inhibit activation"},
      {"measurement": "binding to kallikrein", "setting": "kallikrein", "value": "binds"},
      {"measurement": "neutrophil phagocytic activity", "setting": "human neutrophils; recombinant Ir-CPI 5.0 μg/mL (0.65 μM)", "value": "no evidence for an effect"},
      {"measurement": "neutrophil phagocytic activity", "setting": "human neutrophils; recombinant Ir-CPI 15.3 μg/mL (2 μM)", "value": "marginal (p-value just below threshold for significance) evidence for an increase"},
      {"measurement": "decrease of the phagocytic activity of human neutrophils", "setting": "human neutrophils; whatever the concentration", "value": "did not induce a decrease"},
      {"measurement": "activity on thrombin", "setting": "thrombin", "value": "totally inactive"},
      {"measurement": "bleeding", "setting": "[2]", "value": "does not increase bleeding"},
      {"measurement": "venous thrombus formation", "setting": "[3]", "value": "reduces venous thrombus formation"},
      {"measurement": "binding to plasmin", "setting": "plasmin", "value": "binds"},
      {"measurement": "activation of Factor XI by Factor XIIa", "setting": "Factor XIIa", "value": "inhibit activation"},
      {"measurement": "activation of PK by Factor XIIa", "setting": "Factor XIIa", "value": "inhibit activation"},
      {"measurement": "clot fibrinolysis time", "setting": "clot fibrinolysis", "value": "prolongs"},
      {"measurement": "binding to plasminogen", "setting": "plasminogen", "value": "unable to bind"}
    ]}
  ]
}
